Laboratory results from the RNAGym collection of RNA variant scans (doi:10.7554/elife.90254).

B1: OR4K15 (parent)
chain: GUUAACGGUCAUAGGCCAUGGAAACUAGGAGCACCAUUUCGCUGCCAGUGAAGAAAUGAACAAAGAAAAUCUGGGCCAGGCAGGCAUCAAAAGAAAUAGUCUUGCGCUCAACCAGAAAGUCUGUAAUCAUUUUAAGGGUA

Variants of: B1
Assay: self-cleavage, relative activity (ratio to wild type); higher = more cleavage; in vitro, sequencing; the parent is a self-cleaving ribozyme

Going from GUUAACGGUCAUAGGCCAUGGAAACUAGGAGCACCAUUUCACUGCCAGUGAAGAAAUGAACAAAGAAAAUCUGGGCCAGGCAGGCAUCAAAAGAAAUAGUCUUGCGCUCAACCAGAAAGUCUGUAAUCAUUUUAAGGGUG to GUUAACGGUCAUAGGCCAUGGAAACUGGGAGCACCAUUUCGCUGCCAGUGAAGAAAUGAACAAAGAAGAUCUGGGCCAGGCAGGCAUCAAAAGAAAUAGUCUUGCGCUCAACCAGAAAGUCUGUAAUCAUUUUAAGGGUA, the self-cleavage falls from 1.89 to 1.13.

Compared with GUUAACGGUCAUAGGCCAUGGAAACUAGGAGCACCAUUUCACUGCCAGUGAAGAAAUGAACAAAGAAAACCUGGGCCAGGCAGGCAUCAAAAGAAAUAGUCUUGCGCUCAACCAGAAAGUCUGUAAUCAUUUUAAGGGUA, GUUAACGGUCAUAGGCCAUGGAAACUAGGAGCACCAUUUCGCUGCCAGUGAAGAAAUGAACAAAGAGAAUCUGGGCCAGGCAGGCAUCAAAAGAAAUAGUCUUGCGCCCAACCAGAAAGUCUGUAAUCAUUUUAAGGGUA is lower in self-cleavage: 1.12 for the first, 0.02 for the second.

Compared with GUUAACGGUCAUAGGCCAUGGAAACUAGGAGCACCAUUCCGCUGCCAGUGAAGAAAUGAACAAAGAAAAUCUGGGCCAGGCAGGCAUCGAAAGAAAUAGUCUUGCGCUCAACCAGAAAGUCUGUAAUCAUUUUAAGGGUA, GUUAACGGUCAUAGGCCAUGGAAACCAGGAGCACCAUUUCGCUGCCAGUGAAGAAAUGAACAGAGAAAAUCUGGGCCAGGCAGGCAUCAAAAGAAAUAGUCUUGCGCUCAACCAGAAAGUCUGUAAUCAUUUUAAGGGUA is lower in self-cleavage: 1.73 for the first, 1.48 for the second.

Compared with GUUAACGGUCAUAGGCCAUGGAAACUAGGAGCACCAUUUCGCUGCCAGUGAAGAAAUGAACAAAGAAAAUCUGGGCCAGGCAGGCAUCAAAAGAAAUAGUCUUGCGCUCAACCAGAUAGUCUGUAAUCUUUUUAAGGGUA, GUUAACGGUCAUAGGCCAUGGAAACUAGGAGCACCAUUUCGCUGCCAGUGAAGAAAUGAACAAAGAAAAUCUGGGCCAGGCAGGUAUCAAAAGAAAUAGUCUUGCGCUCAACCAGAAAGUCUGUAAUCAUUUUAAGGGUA is higher in self-cleavage: 0.62 for the first, 1.15 for the second.

First: GUUAGCGGUCAUAGGCCAUGGAAACUAGGAGCACCAUUUCGCUGCCAAUGAAGAAAUGAACAAAGAAAAUCUGGGCCAGGCAGGCAUCAAAAGAAAUAGUCUUGCGCUCAACCAGAAAGUCUGUAAUCAUUUUAAGGGUA
Second: GUUAACGGUCAUAGGCCAUGUAAACUAGGAGCACCAUUUCGCUGCCAGUGAAGAAAUGAACAAAGAAAAUCUGGGCCAGGCAGGCAUCAAAAGAAAUAGUCCUGCGCUCAACCAGAAAGUCUGUAAUCAUUUUAAGGGUA
The self-cleavage of the first is lower: 0.77 for the first, 2.03 for the second.

Going from GUUAACGGUCAUAGGCCAUGGAAACUAGGAGCACCAUUUCGCUGCCAGUGAAGAAAUGAACACAGAAAAUCUGGGCCAGGCAGGCAUCAAAAGAAAUAGUCUUGCGCUCAACCAGAAAGUCUGUAAUCAUUUUAAGGGCA to GUUAACGGUCAUAGGCCAUGGAAACUGGGAGCUCCAUUUCGCUGCCAGUGAAGAAAUGAACAAAGAAAAUCUGGGCCAGGCAGGCAUCAAAAGAAAUAGUCUUGCGCUCAACCAGAAAGUCUGUAAUCAUUUUAAGGGUA, the self-cleavage falls from 1.97 to 1.16.

Compared with GUUAACGGUCAUAGGCCAUGGAAACUAGGAGCACCAUUUCGCUGCCAGUGAAGAAAUGAACAAAGAAAAUCUGGGCCAGGCAGGCAUCAAAAGAAAUAGUCUUGCGCUCAACCAGAAAAUCCGUAAUCAUUUUAAGGGUA, GUUAACGGUCAUAGGCCAUGGAAACUAGGAGCACCAUUUCGCUGCCGGUGAAGAAAUGAACAAAGAAAAUCUGGGCCAGGCAGGCAUCAAAAGAAAUAGUCUUGCGCUCAACCAGAAAGUCUGUAAUCAUUUUAAGGGUA is lower in self-cleavage: 1.11 for the first, 0.96 for the second.

Going from GUUAACGGUCAUAGGCCAUGGAAACUAGGAGCACCAUUUCGCCGCCAGUGAAGAAAUGAACAAAGAAAAUCUGGGCCAGGCAGGCAUCAAAAGAAAUAGCCUUGCGCUCAACCAGAAAGUCUGUAAUCAUUUUAAGGGUA to GUUAACGGUCAUAGGCCAUGGAAACUAGGAGCACCAUUUCCCUGCCAGUGAAGAAAUGAACAAAGAAAAUCUGGGCCAGGCAGGCAUCAAAAGAAAUAGUCUUGCGCUCAACCAGAAAGUCAGUAAUCAUUUUAAGGGUA, the self-cleavage falls from 2.35 to 1.57.

First: GUUAACGGUCAUAGGCCAUGGAAACUAGGAGCACCAUUUCGCUGCCAGUGACGAAAUGAACAAAGAAAAUCUGGGCCAGGCAGGCAUCAAAAGAAAUAGUCUUGCGCUCAACCAGAGAGUCUGUAAUCAUUUUAAGGGUA
Second: GUUAACGGUCAUAGGCCAUGGAAACUAGGAGCACCAUUUCGCUGCCAGUGAAGAAAUGAACAAAGAAAAUCUGGGCCAGGCAGGCAUCAAAAGAAAUAGUCUUGCGCUCAACCAGAAAGCCUGUAAUCAUUUUACGGGUA
The self-cleavage of the first is lower: 1.22 for the first, 1.51 for the second.

First: GUUAACGGUCAUAGGCCAUGGAAACUAGGAGCACCAUUUCGCUGCCGGUGAAGAAAUGAACAAAGGAAAUCUGGGCCAGGCAGGCAUCAAAAGAAAUAGUCUUGCGCUCAACCAGAAAGUCUGUAAUCAUUUUAAGGGUA
Second: GUUAACGGUCAUAGGCCGUGGAAACUAGGAGCACCAUUUCGCUGCCAGUGGAGAAAUGAACAAAGAAAAUCUGGGCCAGGCAGGCAUCAAAAGAAAUAGUCUUGCGCUCAACCAGAAAGUCUGUAAUCAUUUUAAGGGUA
The self-cleavage of the first is lower: 0.23 for the first, 1.86 for the second.

Variant GUUAACGGUCAUAGGCCAUGGAAACUAGGGGCACCAUUUCGCUGCCAGUGAAGAAAUGAACAAAGAAAAUCUGGGCCAAGCAGGCAUCAAAAGAAAUAGUCUUGCGCUCAACCAGAAAGUCUGUAAUCAUUUUAAGGGUA has a self-cleavage of 0.17.
